Source: patent US20060240570A1
Positions of bridges follow the written chain, without caps; N, C: chain ends. No end group written: not given here.

Experiments:
[1] = molecular target: unrelated control antibody; assay: phage ELISA, 10^8 phagemid, wells coated with control mAb
[2] = molecular target: unrelated control antibody; assay: phage ELISA, 10^9 phagemid, wells coated with control mAb
[3] = molecular target: unrelated control antibody; assay: phage ELISA, 10^10 phagemid, wells coated with control mAb

B1: phagemid CS1-31p, displayed peptide … (peptide)
peptide: CSFFYSLCYCWCS
modifications: disulfide (positions not given here); also: disulfide pairing among 4 Cys not given here, displayed on phagemid
ELISA (absorbance units) (absorbance units) [1]: 0.116 | ELISA (absorbance units) (absorbance units) [2]: 0.118 | ELISA (absorbance units) (absorbance units) [3]: 0.125

B2: phagemid CS1-11p, displayed peptide … (peptide)
peptide: CSFRYQWDMFRCS
modifications: disulfide 1-12 (inferred); also: displayed on phagemid
ELISA (absorbance units) (absorbance units) [1]: 0.252 | ELISA (absorbance units) (absorbance units) [2]: 0.258 | ELISA (absorbance units) (absorbance units) [3]: 0.242

B3: phagemid CS1-29p, displayed peptide … (peptide)
peptide: CSGLYPWDYFMCS
modifications: disulfide 1-12 (inferred); also: displayed on phagemid
ELISA (absorbance units) (absorbance units) [1]: 0.125 | ELISA (absorbance units) (absorbance units) [2]: 0.147 | ELISA (absorbance units) (absorbance units) [3]: 0.148

B4: phagemid CS1-2p, displayed peptide … (peptide)
peptide: CSLFYLWDQDRCS
modifications: disulfide 1-12 (inferred); also: displayed on phagemid
ELISA (absorbance units) (absorbance units) [1]: 0.188 | ELISA (absorbance units) (absorbance units) [2]: 0.199 | ELISA (absorbance units) (absorbance units) [3]: 0.228

B5: phagemid CS1-9p, displayed peptide … (peptide)
peptide: CSGLYPWDMFRCS
modifications: disulfide 1-12 (inferred); also: displayed on phagemid
ELISA (absorbance units) (absorbance units) [1]: 0.209 | ELISA (absorbance units) (absorbance units) [2]: 0.204 | ELISA (absorbance units) (absorbance units) [3]: 0.213

B6: phagemid CS1-6p, displayed peptide … (peptide)
peptide: CSFRYLWDQDRCS
modifications: disulfide 1-12 (inferred); also: displayed on phagemid
ELISA (absorbance units) (absorbance units) [1]: 0.173 | ELISA (absorbance units) (absorbance units) [2]: 0.172 | ELISA (absorbance units) (absorbance units) [3]: 0.203
